For assay [1], the target named is recombinant mouse CD34 (Sino Biological) (mouse) (UniProt Q64314). The experiment in a line: ELISA on coated recombinant mouse CD34, LNPs pre-incubated with Triton X-100, anti-Rat HRP detection.
Assay [2] shares this target. The experiment in a line: ELISA on coated recombinant mouse CD34. A general note: An ELISA detects its analyte on a solid surface through an enzyme-linked reagent.
Assay [3] concerns the target anti-CD34 RIg (clone mec14.7) held by ASSET on TsiLNPs. As to the kind of experiment: share of added RIg held on ASSET LNPs, gel quantification after purification.
For assay [4], the target named is Rat IgG2a (RIg), BioXcell clone FIB504. As to the kind of experiment: ELISA, plates coated with 5 µg/ml RIg, ASSET in serial dilutions, anti-His detection.
Assay [5] has the same target. As to the kind of experiment: ELISA on coated RIg of ASSET LNPs after dialysis, LNPs pre-incubated with 0.2% Triton X-100.
The target of assay [6] is Rat IgG2a (RIg) immobilized on the Biacore chip (Rattus norvegicus (Rat)) (UniProt P20760). The experiment in a line: SPR, Biacore T-200, RIg immobilized on CM5 chip, mASSET 0 to 30 nM. (In general: Surface plasmon resonance follows binding to a sensor surface in real time, without labels.)
Chain of UniProt P20760 (P20760 whole entry): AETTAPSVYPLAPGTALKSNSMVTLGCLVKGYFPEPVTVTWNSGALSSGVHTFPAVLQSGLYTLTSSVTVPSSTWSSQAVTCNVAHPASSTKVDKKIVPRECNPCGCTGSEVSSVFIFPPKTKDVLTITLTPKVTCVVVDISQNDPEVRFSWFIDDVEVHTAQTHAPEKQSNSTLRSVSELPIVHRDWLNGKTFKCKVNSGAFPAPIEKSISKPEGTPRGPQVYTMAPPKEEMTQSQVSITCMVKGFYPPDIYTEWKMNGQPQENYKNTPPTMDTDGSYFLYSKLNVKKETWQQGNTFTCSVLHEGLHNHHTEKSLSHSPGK

Usually Kd stands for the equilibrium constant for the complex coming apart.

Chain of UniProt Q64314 (Q64314 35-287 limits assumed): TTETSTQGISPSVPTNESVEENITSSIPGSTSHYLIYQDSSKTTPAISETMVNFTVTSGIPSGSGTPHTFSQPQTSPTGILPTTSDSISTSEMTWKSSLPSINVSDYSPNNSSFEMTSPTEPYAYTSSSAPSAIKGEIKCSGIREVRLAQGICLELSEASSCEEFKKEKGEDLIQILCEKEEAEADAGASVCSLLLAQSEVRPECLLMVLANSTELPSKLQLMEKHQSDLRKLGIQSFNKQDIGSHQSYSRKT

“anti-CD34 RIg (clone mec14.7) held by ASSET on TsiLNPs (antibody)”: the Kd in assay [1] amounted to 0.24 nM.
For “anti-CD34 RIg (clone mec14.7) chemically conjugated to LNPs (ccTsiLNPs) (antibody)”, in assay [1], the Kd was 1.08 nM. Besides, in assay [2], the fold loss in activity against RIg bound to the LNP by ASSET was found to be 4.5 fold.

B1: ASSET (Anchored Secondary scFv Enabling Targeting) (scFv, part only; not given: mCherry fusion and junctions, part only)
scFv, part: CDQSSSEVQLLQSGPELVKPGASVKIPCKASGYTFTDYNMDWVKQSHEKSLEWIGYINPYSGDTIYNHKFKDKATLTVYKSSNIAYMELRSLTSEDTAVYYCARGGYDYGDHWGQGTTLTVSSGSAGGGGSGGGGSGGGGSDIKMTQSPSSMYASLGERVTITCKASQDINSYLSWFQQKPGKSPKTLIYRANRLVDGVPSRFSGSGSGQDYSLTISSLEYEDMGIYYCLQDDEFPRTFGGGTKLEIKHHHHHH
modifications: N-terminal cysteine of the CDQSSS NlpA motif is lipid-acylated (bacterial lipidation)
As for B1, the IgG incorporation in assay [3] came out at 98.3%. This molecule also had a dissociation constant Kd in assay [4] of 10 nM. Moreover, the functionality maintained after incorporation into LNPs in assay [5] came to 95.8%.

B2: mutated (m)ASSET, fusion protein containing a mutated NlpA motif (scFv, not shown: small tags and cut ends)
scFv: EVQLLQSGPELVKPGASVKIPCKASGYTFTDYNMDWVKQSHEKSLEWIGYINPYSGDTIYNHKFKDKATLTVYKSSNIAYMELRSLTSEDTAVYYCARGGYDYGDHWGQGTTLTVSSGSAGGGGSGGGGSGGGGSDIKMTQSPSSMYASLGERVTITCKASQDINSYLSWFQQKPGKSPKTLIYRANRLVDGVPSRFSGSGSGQDYSLTISSLEYEDMGIYYCLQDDEFPRTFGGGTKLEIK
For B2, the Kd in assay [6] worked out at 22.7 nM.

These data come from patent publication US20190309087A1.
